The record followed here is patent publication US11391726B2, “MoT cells as a therapeutic screening tool for regulatory t-cell activity” (ARIZONA BOARD OF REGENTS ON BEHALF OF ARIZONA STATE …, priority 2018, dated 2022).

Assay [1] concerns CD4+ PBMC. Put plainly: CFSE proliferation assay: Mabs co-incubated with CD3/28-stimulated CD4+ PBMC without MoT cells. As to conditions: no MoT cells (FIGS. 5C, 5E, 5G). Format: cell-based, human. The protocol:
(§1) Suppression assays. After IRB approval at Arizona State University (protocol #0601000548), peripheral blood was collected from healthy donors. After Ficoll-Paque Plus gradient separation of the buffy coat, CD4+ cells were purified using EasySep Human CD4^+ T Cell Isolation Kit (Catalog #17952 from Stemcell Technologies). Cells were allowed to rest overnight in cIMDM at 37° C. prior to labeling with CFSE (Carboxyfluorescein succinimidyl ester, from Cayman Chemica cat #10009853) dye to track cell divisions. The following day, CD4^+ T cells were counted, stained with CFSE, washed in PBS and then plated in IMDM with 10% FBS at 3×10^5 cells per well in a 48-well plate coated with OKT3 antibody at 5.0 ug/mL for 2 hours at 37° C. then washed twice in PBS before adding soluble co-stimulatory anti-CD28 (eBioscience clone CD28.6) at 5.0 ug/mL final concentration.
(FIG. 5A) Unstimulated PBMC. (FIG. 5B) CD3/28-stimulated CD4^+ PBMC cell division without MoT cells. (FIG. 5C) Anti-GITR, (FIG. 5E) Anti-CCR4 mogamulizumab, and (FIG. 5G) anti-PDL-1 (atezolizumab) co-incubated with PBMCs. (FIG. 5D) Anti-GITR, (FIG. 5F) anti-CCR4 (mogamulizumab), and (FIG. 5H) anti-PDL-1 (atezolizumab) co-incubated with PBMCs and MoT cells (1:½ ratio).

Assay [2] has as its system MoT cells. Nature of the assay: CFSE suppression assay: Mabs pre-incubated with MoT cells, then co-cultured with CD3/28-stimulated CD4+ PBMC. The conditions noted are these: Mab pre-incubated with MoT cells 30 minutes, CD4+ PBMC:MoT ratio 1:1/2, CFSE flow cytometry (FIGS. 5D, 5F, 5H). The format is cell-based, human. The protocol:
as §1
In some studies MoT and Jurkat cells were labeled with Cell Trace FarRed dye (Thermofisher) to gate MoT and Jurkat cells away from CD4^+ PBMC in flow cytometry analysis. Two-fold serial dilutions of MoT and Jurkat cells were added to CD4^+ PBMC, starting at 1.5×10^5 MoT and Jurkat cells (1:1/2 ratio CD4^+ T cells:tumor cells). Final volume per well was 1 mL. Cells were incubated for 5 days. […]
A general note: In flow cytometry, cells or beads pass a laser one at a time.

B1: mogamulizumab (antibody, chains of the INN, looked up, V domains shown)
VH: EVQLVESGGDLVQPGRSLRLSCAASGFIFSNYGMSWVRQAPGKGLEWVATISSASTYSYYPDSVKGRFTISRDNAKNSLYLQMNSLRVEDTALYYCGRHSDGNFAFGYWGQGTLVTVSS
VL: DVLMTQSPLSLPVTPGEPASISCRSSRNIVHINGDTYLEWYLQKPGQSPQLLIYKVSNRFSGVPDRFSGSGSGTDFTLKISRVEAEDVGVYYCFQGSLLPWTFGQGTKVEIK
With B1, the “suppression or inhibition of CD4+ PBMC proliferation by the Mab alone” value in assay [1] is listed as “do not suppress or inhibit”. The entries for the “reversal of MoT cell-mediated suppression of CD4+ PBMC proliferation” value in assay [2] and in assay [2] (listed as ant-CCR4) were “None of the checkpoint inhibitor Mabs including anti-GITR reversed MoT cell-mediated suppression” and “did not attenuate MoT Treg suppressive activity”, respectively.
